According to the nanobody polyreactivity screen of Harvey et al. (2022):

Assay: yeast display, Sf9 membrane polyspecificity reagent, FACS + sequencing; frameworks hold sequencing errors
Summary of the method: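 Synthetic nanobody libraries on Saccharomyces cerevisiae BJ5465 were galactose-induced for 36–48 hours, stained 1 hour at 4 °C with 10% biotinylated, detergent-solubilized Sf9 membrane reagent and enriched on streptavidin microbeads. FACS then separated cells into low and high (top ~1%) gates by anti-HA (expression) and streptavidin (reagent binding) fluorescence. Genes were colony-PCR amplified, MiSeq 2 × 250 sequenced and CDR-length filtered. A clone's polyreactivity label is that of its gate of origin.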

Sequence | polyreactivity (PSR sort gate)
QVQLVESGGGLVQAGGSLRLSCAASGFTFYPYAMGWYRQAPGKERELVASISWSGGSTYYADSVKGRFTISRDNAKNTVYFQMNSLKPEDTAVYYCNAEYWLPYYPDYDFWGQGTQVTVSS | low polyreactivity
QVQLVESGGGLVQAGGSLRLSCAASGRTFYSYVMGWYRQAPGKEREFVADISQSGGRTYYADSVKGRFTISRDNAKNTVYLQMNSLKPEDTAVYYCAAAKRGSYARGYYWGQGTQVTVSS | low polyreactivity
QVQLVESGGGLVQAGGSLRLSCAASGITFRDYAMGWYRQAPGKERELVAAISTRGVRTYYADSVKGRFTISRDNAKNTVYLQMNSLKPEDTAVYYCAARSVTYWWVGYEFYYWGQGTQVTVSS | high polyreactivity
QLQLVESGGGLVQAGGSHRLSCAASGSIFTGYAMGRSRQAPGKQREFVAAISWSGSSTYYADSVKGRFTISRDNGKNTVYVQMNSLKPEDTAVYYCNAVKGWWGYYSSVDFDYWGQGTQVTVSS | low polyreactivity
QVQLEESGGGLVQAGGSLRLSCAASGRTFVRYAMGWYRQATGNERELVAAFSLRGGRTYYADSVKGRFTISRDNAKNTVYLQMNSLKPEDTAVYYCNSRYYIQREYDYWGQGNQVTVSS | high polyreactivity
QVQLVESGGGLVQAGGSLRLSCAASGSTFESNAMGWYRQAPGKERELVASISGSGGSTFYADSVKGRFTISRDNAKNTVYLQMNSLKPEDTAVYYCNRGRDEYDYWGQGTQVTVSS | low polyreactivity
QVQLVESGGGLVQAGGSLRLSCAASGRIFLWYAMGWYRQAPGKERELVAGISSGASTYYADSVKGRFTISRDNAKNTVYLQMNSLKPEDTAVYYCAAPYYRLTGWSRYDYWGQGTQVTVSS | high polyreactivity
QVQLVESGGGLVQAGASLRLSCAASGRIFARYAMGWYRQAPGKERELVASITRSGGSTYYADSVKGRYTISRDNAKNTVYLQMNSLKPEDTAVYYCAARYGRVRDVIPYDYWGQGTQVTVSS | high polyreactivity
QVQLVESGGGLVQAGGSLRLSCAASGRIFPGYAMGWYRQAPGKERELVAAISERGGSTYYADSVKGRFTISRDNAKNTVYLQMNSLKPEDTAVYYCAAIWRGGYNYWGQGTQVTVSS | low polyreactivity
QVQLVESGGGLVQAGGSLRLSCSASGSTFRIYAMGWYRQAPGKERELVAAISWSSGSTYYADSVKGRFTISRDNAKKSVYLQMNSLKPEDTAVYYCATYARRSGYYYWGQGSQVTVSS | high polyreactivity
QVQLVESGGGLVQAGGSLRLSCAASGSTFWDYAMGWYRQSPGKERELVAGITYSGTSTYYADSVKARFTISRDHAKNTVYLQMNSLKPEDTAVYYCAAESQAVGWWTPGYDYWGQGTQVTVSS | low polyreactivity
QVQLVESGGGLVQAGGSLRLSCAASGSIFPSNAMGWYRQAPGKERELVAAISSSGGRTYYADSVKGRFTISRDNAKNTVYLQMNSLKPEDTAVYYCNRVYFKSRQGQMYYWGQGTQVTVSS | high polyreactivity
QVQHVESGGGLVQAGGSLRLRCAASGSIFYINAMGWYRQAPGQERELVAAITSDGSTYYADSVKGRFTISGDNAKNSVYLQINSLKPEDTAVYYCAADLTSDQYVYYWYWFYSWGQGTQVTVSS | low polyreactivity
QVHLVESGGGLVQAGGSLRLSCAATGSTFHYYAMGWYRQAPGKEMELVAAISSSGVSTYYADSVKGRFTISRDNAKNTVYLQMNSLKPEDTAVYYCNSASVFHYRWYYYWGHGTQVTVSS | high polyreactivity
QVQLVESGGGLVQAGGSLRLSCAASGLIFDVNTMGWYRQAPRKERELVAAITGSGGRTYYADSVKGRFTISRDNAKNTVYLQMNSLKPEDNAVYYCNARHPASGDLYRMDYWGQGTQVTVSS | low polyreactivity
QVQLVESGGGLVQAGGSLRLSCAASGLTFIYYAMGWYRQAPGKERELVAAISVSGGSTYYADSVKGRFTISRDNAKNTVYLQMNSLKPEDTAVYYCAADWFVHIPRYQYSFDYWGQGTQVTVSS | low polyreactivity

Sequence | polyreactivity (PSR sort gate)
QVQLVESGGGLVQAGGSLRLSCDASGSIFIANAMGWYRQAPGKEREFVAAINWSRGSTYYADSVKGRFTISRDNAKNTVYLQMNSLKPEDTAVYYCNAASLKFTSPVRFGYWGQGTQVTVSS | high polyreactivity
QVQLVESGGGLVQAGGSLRLSCAAYVSIFGDNALGWYRQAPGKEMELVAAISSDGNTNYADSVKGRFTISRDNAKNTVYLQMNSLKPEDTAVYYCAARWGYRRVRANSFYYWGQGTQVTVSS | low polyreactivity
QVQLVESGGGLVQAGGILRLSCAASGLIFIGYAMGWYRQAPGKERELVASIRGVGSTNYADSVKGRFTISRDNAKNTVYLQMNSLKPEDTAVYYCATSVDRALYTQTRGDYDYWGQGTQVTVSS | low polyreactivity
QVQLVESGGGLVQAGGSLRLSCAASGFTFYSNAMGWYRQAPGKERELVAAITGRGGRTYYADSVKGRFTISRDNAKNTVYLQMNSLKPEDTAVYYCAAVYHVSTWGGRYYFRQGYDYWGQGTQVTVSS | high polyreactivity
QVQLVESGGGLVQAGGSLRLSCAASGYIFGPYAMGWYRQAPGKERELVAAITWRGGRTYADSVKGRFTISRDNAKNTVYLQMNSLKPEDTAVYFCATETGYSPFVYYSGRYGYWGQGTQVNVSS | high polyreactivity
QVQLVEAGGGLVQAGGSLRLSCAASGRTLYPYAMGWYRQAPGKERELVAAISSRGGSTYYADSVKGRFTISRDNAKNTVYLQMNSLKPEDTAVYYCAKSYRKILSITGLVPWTDYFWGQGTQVTVSS | low polyreactivity
QVQLQESGGGLVQGGGSLRLSCAASGSNYRSWYMGWYRQAPGKERELVASITEGATTNYAYSVKAALPLAAITRNSVYRQMDSMKPEDTAVYYRGASFGSTYDLVYWGQGTQVTVSS | high polyreactivity
QVQLVESGGGLVQAGGSLRLSCAASGSILVAYAMGWYRQAPGKERELVAAITQGGGSTYYADSVKGRFTISRDNAKNTVYLQMNSLKPEDTAVYYCNVGANVYLLYFPSRGGVYDYGYWGKGTQVTVSS | low polyreactivity
QVQHVESGGGLVQAGGSLSLSCAASARTFRRNVMGLYRQAPGKERELVAAISYGANTNYADSVKGRFTISRDNAKNTVYLQMNSLKPEDTAVYYCAAGEGWRSRTFDYWGQGTQVTVSS | low polyreactivity
QVQLVESGGGLVQAGGSLRLSCAASGRIFDFNAMGWYRQAPGKDRELLAAISRGGGSTYYADSVKGRFTMSRDNAKYTVYLQMNSLKPEDTAVYYCNADYYYPLRSNKYYYWGQGTQVTVSS | high polyreactivity
QVQLEESGGGLVQAGGSLRLSCAASGSIFVGYDMGWYRQAPGKVWELVAAITSSGVGSTYYADSVKGRFTISRDNAKNTVYLQMNSLKPEDTAVYYCAARTSLWWFLKYDYWGEGTQVTVSS | low polyreactivity
QVQLVESGGGIDQAGGSLRLSCAASAFTLINYAMAWYRQAPGKERELVAAISQSGGSTYYADSVKGRFTISSDNAKNTVYLQMNSLKPEDTAVYYCNARRRGWGWTIGYVWRDDYWGQGTQVTVSS | high polyreactivity
QVQLVESGGGLVQAGGSLRLSCAASGLTFAYYAMGWYRQAPGKDRELVAAISWNGGRTYYADSVKGRFTISRDNAKNTVYLQMNSLKPEDTAVYYCAAQVTSSFYWGQGTQVTVSS | high polyreactivity
QVQLVESGGGLVQAGGSLRLSCAASGSIFNYYVMGWYRQAPGKERELVAGIRWNGGSTYYADSVKGRFTISRDNAKNTVYLQMNSLKPEDTAVYDCAAQAWWGYYSRGPMDYWGQGTQVTVSS | low polyreactivity
QVQLVESGGGLVQAGGSLRLSCAASGFTFWTYPMGWYIQAPGKERELVAAIDSGGSTYYADSVKGRFTISRDNAKNTVYLQMNSLKPEDTAVYYCNAGPSVTSGYDYDYRGQGTQVTVSS | low polyreactivity
